Laboratory results as given in the supplement of paper PMC7877785.
± gives the uncertainty stated by the source.

Experiment: self-splicing fitness, log relative to wild type (ln ratio); higher = more splicing; Tetrahymena group I intron in knt gene, E. coli kanamycin selection, DiMSum; sequences stand for … in CUCUCU…GGAGGGAAAAGUUAUCAGGCAUGCACCUGGUAGCUAGUCUUUAAACCAAUAGAUUGCAUCGGUUUAAAAGGCAAGACCGUCAAAUUGCGGGAAAGGGGUCAACAGCCGUUCAGUACCAAGUCUCAGGGGAAACUUUGAGAUGGCCUUGCAAAGGGUAUGGUAAUAAGCUGACGGACAUGGUCCUAACCACGCAGCCAAGUCCUAAGUCAACAGAUCUUCUGUUGAUAUGGAUGCAGUUCACAGACUAAAUGUCGGUCGGGGAAGAUGUAUUCUUCUCAUAAGAUAUAGUCGGACCUCUCCUUAAUGGGAGCUAGCGGAUGAAGUGAUGCAACACUGGAGCCGCUGGGAACUAAUUUGUAUGCGAAAGUAUAUUGAUUAGUUUUGGAGUACUCGUGGUCG
How it was run: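 Colonies from six replicate transformations of E. coli BL21(DE3) were pooled and amplicon-sequenced on an Illumina HiSeq 2500. The library placed an intron with all eight P1ex-region nucleotides randomised inside the knt kanamycin-resistance gene on pET-22b(+), and cells grew overnight at 37°C or 30°C on LB agar with or without 25 μg/mL kanamycin (plus 100 μg/mL carbenicillin, 50 μM IPTG, 0.2% rhamnose). Fitness is the DiMSum error-weighted combination of wild-type-normalised replicate fold changes, kanamycin versus none.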

For UUCAAGCAAUAUUACGCGAC, which “self-splicing fitness (ln)” value (30 °C) is on record?
Its value is -2.61 ± 0.24.

What about the “self-splicing fitness (ln)” value (37 °C) of the same sequence?
Its value is -1.91 ± 0.2.

For UUCAAGCAAUAUUACGCGCG, which “self-splicing fitness (ln)” value (30 °C) is on record?
Its value is -1.39 ± 0.082.

And the “self-splicing fitness (ln)” value (37 °C)?
The value was -0.634 ± 0.13.

For UUCAAGCAAUAUUACGCUAA, which “self-splicing fitness (ln)” value (30 °C) is on record?
Its value is -1.35 ± 0.2.

And the “self-splicing fitness (ln)” value (37 °C)?
The value was -0.551 ± 0.19.

What does the source list for UUCAAGCAAUAUUACGCUCG?
self-splicing fitness (ln) (30 °C): -3.13 ± 0.33; self-splicing fitness (ln) (37 °C): -2.15 ± 0.2

What does the source list for UUCAAGCAAUAUUACGGAGG?
self-splicing fitness (ln) (30 °C): -4.04 ± 0.27; self-splicing fitness (ln) (37 °C): -2.58 ± 0.19

What does the source list for UUCAAGCAAUAUUACGGAUA?
self-splicing fitness (ln) (30 °C): -1.18 ± 0.14; self-splicing fitness (ln) (37 °C): -0.384 ± 0.12

Which results are given for UUCAAGCAAUAUUACGGCAC?
self-splicing fitness (ln) (30 °C): -2.66 ± 0.4; self-splicing fitness (ln) (37 °C): -1.11 ± 0.33

Which results are given for UUCAAGCAAUAUUACGGCCA?
self-splicing fitness (ln) (30 °C): -1.31 ± 0.13; self-splicing fitness (ln) (37 °C): -0.977 ± 0.13

Which results are given for UUCAAGCAAUAUUACGGCGA?
self-splicing fitness (ln) (30 °C): 0.0413 ± 0.081; self-splicing fitness (ln) (37 °C): 0.263 ± 0.11

Which “self-splicing fitness (ln)” value (30 °C) does the source give for UUCAAGCAAUAUUACGGCUC here?
Its value is -1.68 ± 0.17.

What about the “self-splicing fitness (ln)” value (37 °C) of the same sequence?
Its value is -0.923 ± 0.23.

Which results are given for UUCAAGCAAUAUUACGGGCA?
self-splicing fitness (ln) (30 °C): -0.666 ± 0.11; self-splicing fitness (ln) (37 °C): 0.111 ± 0.1

For UUCAAGCAAUAUUACGGGGA, which “self-splicing fitness (ln)” value (30 °C) is on record?
Its value is -1.49 ± 0.1.

What about the “self-splicing fitness (ln)” value (37 °C) of the same sequence?
Its value is -0.885 ± 0.1.

Which “self-splicing fitness (ln)” value (30 °C) does the source give for UUCAAGCAAUAUUACGGUAU here?
The value was -2.84 ± 0.11.

And the “self-splicing fitness (ln)” value (37 °C)?
The value was -1.64 ± 0.11.

With UUCAAGCAAUAUUACGGUGC as the sequence, how does the “self-splicing fitness (ln)” value (30 °C) read?
Its value is -2.77 ± 0.42.

And the “self-splicing fitness (ln)” value (37 °C)?
Its value is -0.868 ± 0.3.

What does the source list for UUCAAGCAAUAUUACGGUUC?
self-splicing fitness (ln) (30 °C): -4.02 ± 0.32; self-splicing fitness (ln) (37 °C): -2.78 ± 0.48

For UUCAAGCAAUAUUACGUAGU, which “self-splicing fitness (ln)” value (30 °C) is on record?
The value was -3.6 ± 0.22.

And the “self-splicing fitness (ln)” value (37 °C)?
Its value is -1.61 ± 0.2.

Which results are given for UUCAAGCAAUAUUACGUCGU?
self-splicing fitness (ln) (30 °C): -2.69 ± 0.15; self-splicing fitness (ln) (37 °C): -1.44 ± 0.14

What does the source list for UUCAAGCAAUAUUACGUCUG?
self-splicing fitness (ln) (30 °C): -3.08 ± 0.24; self-splicing fitness (ln) (37 °C): -1.46 ± 0.14

For UUCAAGCAAUAUUACGUGCU, which “self-splicing fitness (ln)” value (30 °C) is on record?
Its value is -4.47 ± 0.42.

What about the “self-splicing fitness (ln)” value (37 °C) of the same sequence?
Its value is -2.86 ± 0.35.

For UUCAAGCAAUAUUACGUUUG, which “self-splicing fitness (ln)” value (30 °C) is on record?
The value was -3.95 ± 0.34.

What about the “self-splicing fitness (ln)” value (37 °C) of the same sequence?
Its value is -2.31 ± 0.28.

Which “self-splicing fitness (ln)” value (30 °C) does the source give for UUCCAGCAAUAUUACGACGG here?
The value was -2.74 ± 0.32.

What about the “self-splicing fitness (ln)” value (37 °C) of the same sequence?
Its value is -1.98 ± 0.29.

For UUCCAGCAAUAUUACGAGCU, which “self-splicing fitness (ln)” value (30 °C) is on record?
Its value is -3.64 ± 0.23.

And the “self-splicing fitness (ln)” value (37 °C)?
The value was -2.71 ± 0.27.

With UUCCAGCAAUAUUACGAGUG as the sequence, how does the “self-splicing fitness (ln)” value (30 °C) read?
Its value is -0.354 ± 0.059.

What about the “self-splicing fitness (ln)” value (37 °C) of the same sequence?
Its value is -0.52 ± 0.069.
